# Literature values, collected in paper PMC5428663, “Identification of small molecule inhibitors of Interleukin-18” (Scientific Reports, 2017).
# B1: hIL-18BP (protein, UniProt O95998 31-194, looked up)
# Interleukin-18-binding protein: TPVSQTTTAATASVRSTKDPCPSQPPVFPAAKQCPALEVTWPEVEVPLNGTLSLSCVACSRFPNFSILYWLGNGSFIEHLPGRLWEGSTSRERGSTGTQLCKALVLEQLTPALHSTNFSCVLVDPEQVVQRHVVLAQLWAGLRATLPPTQEALPSSHSSPQQQG
# Target: hIL-18
# Details: read-out: affinity for hIL-18
molecule,measurement,value
B1,Kd,0.4 nM
